The results in this text go back to US20030049211A1, “Remedies and preventives for dental diseases” (priority 2000, published 2003).

The target in assay [1] is T1, PTHrP (1-34) (Homo sapiens, UniProt P12272). Kind of assay: ELISA, determination of antigen-binding ability. Details: coating buffer supplemented with 1 μg/ml of human PTHrP (1-34) (Peptide Research Institute); purchased Peptide Research Institute. The note with it: antibodies expressed in COS-7 cells; H-chain humanized version a. Here is the method: An ELISA plate for the determination of antigen-binding ability was prepared as follows. Each well of a 96-well ELISA plate was coated with 100 μl of a coating buffer supplemented with 1 μg/ml of human PTHrP (1-34) (Peptide Research Institute), and then blocked with 200 μl of a dilution buffer. Each well was added with each of the serial dilutions of the COS-7 cell culture supernatant in which each of the chimeric antibodies had been expressed, or added with each of the serial dilutions of each of the chimeric antibodies per se in a purified form. After the plate was incubated at room temperature and washed with PBS-Tween 20, each well of the plate was added with 100 μl of a solution of alkaline phosphatase-conjugated goat anti-human IgG antibodies (TAGO). After the plate was incubated at room temperature and washed with PBS-Tween 20, each well of the plate was added with 1 mg/ml of a substrate solution (“Sigma 104”, p-nitrophenylphosphoric acid, SIGMA). The solution was measured on its absorbance at 405 nm using Microplate Reader (Bio Rad).
An ELISA plate for determining antigen-binding ability was prepared as follows. Each well of a 96-well ELISA plate (Maxisorp, NUNC) was coated with 100 μl of a coating buffer containing 1 μg/ml of human PTHrP (1-34) and then blocked with 200 μl of a dilution buffer. Subsequently, each well was added with each of the serial dilutions of the COS-7 cell culture supernatant in which each of the hybrid antibodies and humanized antibodies was expressed, or added with each of the serial dilutions of each of the hybrid antibodies and humanized antibodies in a purified form. The plate was incubated at room temperature and washed with PBS-Tween 20. Subsequently, each well was added with 100 μl of alkaline phosphatase-conjugated goat anti-human IgG antibody (TAGO). The plate was incubated at room temperature and washed with PBS-Tween 20. Subsequently, each well was added with 1 mg/ml of a substrate solution (“Sigma 104”, p-nitrophenylphosphoric acid, SIGMA). The solution was measured on its absorbance at 405 nm using Microplate Reader (Bio Rad).
A general note: In an ELISA, binding on a coated surface is turned into a signal by an enzyme label.

The target of assay [2] is T1, PTHrP (1-34). Kind of assay: Hybridoma screening by solid phase RIA. Type of assay: binding. The arrangement: mixed with an equivalent amount of 4 ng/ml of PTHrP (1-34); host or cells: peptide added from outside to rat ROS17/2.8-5 cells. The note with it: hybridoma culture supernatant. As to the method:
The screening of hybridomas was performed by determining the presence of PTHrP-recognition antibodies in the culture supernatant of the wells in which cell growth had been observed in HAT medium, by solid phase RIA method. The hybridomas were collected from the wells in which the binding ability to the PTHrP-recognition antibodies had been confirmed. The hybridomas thus obtained was suspended into RPMI-1640 medium containing 15% FCS supplemented with OPI-supplement (Sigma), followed by unification of the hybridomas by limiting dilution method.

B1: m/hMBC1La λ: hybrid antibody: humanized H-chain with mouse FR1,2/human FR3,4 hybrid L-chain (from version a) (antibody, V domains shown)
VH: QVQLVESGGGVVQPGRSLRLSCAASGFTFSSYGMSWVRQAPGKGLEWVATISSGGSYTYYPDSVKGRFTISRDNSKNTLYLQMNSLRAEDTAVYYCARQTTMTYFAYWGQGTLVTVSS
VL: QLVLTQSSSASFSLGASAKLTCTLSSQHSTYTIEWYQQQPLKPPKYVMDLKQDGSHSTGDGIPDRFSGSSSGAERYLTISSLQSEDEADYYCGVGDTIKEQFVYVFGGGTKLTVL
With B1, in the assay with PTHrP (1-34) [1], the “antigen-binding (PTHrP-binding) activity compared with the chimeric #23-57-137-1 antibody” value is “the same level of antigen-binding activity as that of the chimeric #23-57-137-1 antibody”.

B2: m/hMBC1Ldλ: hybrid antibody: humanized H-chain with mouse FR1,2/human FR3,4 hybrid L-chain (from version d, 87 isoleucine) (antibody, V domains shown)
VH: QVQLVESGGGVVQPGRSLRLSCAASGFTFSSYGMSWVRQAPGKGLEWVATISSGGSYTYYPDSVKGRFTISRDNSKNTLYLQMNSLRAEDTAVYYCARQTTMTYFAYWGQGTLVTVSS
VL: QLVLTQSSSASFSLGASAKLTCTLSSQHSTYTIEWYQQQPLKPPKYVMDLKQDGSHSTGDGIPDRFSGSSSGAERYLTISSLQSEDEADYICGVGDTIKEQFVYVFGGGTKLTVL
For the molecule B2, in the assay with PTHrP (1-34) [1], the “antigen-binding (PTHrP-binding) activity compared with the chimeric #23-57-137-1 antibody” value was “the same level of antigen-binding activity as that of the chimeric #23-57-137-1 antibody”.

B3: hmmMBC1L(λ): hybrid antibody: humanized H-chain with human FR1/mouse FR2,3,4 hybrid L-chain (antibody, V domains shown)
VH: QVQLVESGGGVVQPGRSLRLSCAASGFTFSSYGMSWVRQAPGKGLEWVATISSGGSYTYYPDSVKGRFTISRDNSKNTLYLQMNSLRAEDTAVYYCARQTTMTYFAYWGQGTLVTVSS
VL: QLVLTQSPSASASLGASVKLTCTLSSQHSTYTIEWYQQQPLKPPKYVMDLKQDGSHSTGDGIPDRFSGSSSGADRYLSISNIQPEDEAMYICGVGDTIKEQFVYVFGGGTKVTVL
For B3, in the assay with PTHrP (1-34) [1], the “antigen-binding (PTHrP-binding) activity compared with the chimeric #23-57-137-1 antibody” value is reported as “the same level of antigen-binding activity as that of the chimeric #23-57-137-1 antibody”.

B4: #23-57-137-1: mouse monoclonal antibody against human PTHrP (1-34) from hybridoma #23-57-137-1 (FERM BP-5631) (antibody, V domains shown)
VH: EVQLVESGGDLVKPGGSLKLSCAASGFTFSSYGMSWIRQTPDKRLEWVATISSGGSYTYYPDSVKGRFTISRDNAKNTLYLQMSSLKSEDTAMFYCARQTTMTYFAYWGQGTLVTVSA
VL: QLVLTQSSSASFSLGASAKLTCTLSSQHSTYTIEWYQQQPLKPPKYVMDLKQDGSHSTGDGIPDRFSGSSSGADRYLSISNIQPEDEAMYICGVGDTIKEQFVYVFGGGTKVTVLGQP
Take B4: in the assay with PTHrP (1-34) [2], the “binding ability to PTHrP (1-34)” value is “high binding ability”.

B5: antibody having both a humanized H-chain version “a” and a chimeric L-chain: antibody with humanized #23-57-137-1 H-chain version a and chimeric L-chain (antibody, V domains shown)
VH: QVQLVESGGGVVQPGRSLRLSCAASGFTFSSYGMSWVRQAPGKGLEWVATISSGGSYTYYPDSVKGRFTISRDNSKNTLYLQMNSLRAEDTAVYYCARQTTMTYFAYWGQGTLVTVSS
VL: QLVLTQSSSASFSLGASAKLTCTLSSQHSTYTIEWYQQQPLKPPKYVMDLKQDGSHSTGDGIPDRFSGSSSGADRYLSISNIQPEDEAMYICGVGDTIKEQFVYVFGGGTKVTVLGQP
Regarding B5, the “antigen-binding (PTHrP-binding) activity compared with the chimeric #23-57-137-1 antibody” value with PTHrP (1-34) [1] was “the same level of PTHrP-binding activity as that of a chimeric antibody”.
